# Measurements reported in patent US20020160975A1, “Conserved XIAP-interaction motif in caspase-9 and Smac/DIABLO for mediating apoptosis” (Thomas Jefferson University, priority 2001, published 2002).
# T1: isolated BIR3 domain of XIAP, P98170
# T1 chain: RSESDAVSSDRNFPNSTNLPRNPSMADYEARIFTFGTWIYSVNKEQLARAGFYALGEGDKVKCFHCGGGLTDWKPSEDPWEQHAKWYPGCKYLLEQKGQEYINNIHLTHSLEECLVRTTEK
# How the values were obtained:
# XIAP [1] = target: T2, XIAP (Homo sapiens, UniProt P98170); experiment: Cytochrome c-dependent caspase-3 activation in 293T S100 extracts containing XIAP (DEVD-AMC); assay type: biochemical; conditions: 25, 100 and 500 μM peptide, XIAP 10 nM, cytochrome c and dATP
# T2 construct: made in house; host or cells: in vitro translation (cell-free)
# Method: The activity of caspase-3 in the S100 extracts was measured using the peptide substrate DEVD-AMC.
# [2] = target: T1, isolated BIR3 domain of XIAP, P98170
# [3] = target: T3, X-linked inhibitor of apoptosis protein (XIAP), full length (UniProt P98170 1-497); experiment: Far western with 35S-labeled XIAP
# T3 construct: Used as in vitro translated 35S-labeled full length XIAP (pull-down, Far western) or as purified XIAP (holoenzyme experiments); also called full length XIAP; 35S-labeled XIAP
# [4] = target: T4, E314S mutant BIR3 domain of XIAP (UniProt P98170 238-358, limits assumed); experiment: GST pull-down of 35S-labeled E314S BIR3
# T4 construct: domain: BIR3; 35S-labeled, in vitro translated
# [5] = target: T5, isolated BIR3 domain of XIAP (UniProt P98170 238-358, limits assumed); experiment: method not stated
# T5 construct: domain: BIR3; In vitro translated 35S-labeled BIR3 in pull-downs; purified XIAP-BIR3 in enzyme assays; also called XIAP-BIR3; WT BIR3
# [6] = target: T3, X-linked inhibitor of apoptosis protein …; experiment: gel filtration on Superose 6 and immunoblot of fractions
# XIAP [7] = target: T2, XIAP; experiment: Far Western blot analysis with 35S-labeled XIAP; assay type: binding; conditions: for binding of XIAP by Far Western: proteins on nitrocellulose membrane, denatured and renatured; for ability to interact with BIR3 (Far western, FIG. 12B): recombinant caspase-9 mutants
# full length XIAP = target: T6, full length XIAP (Homo sapiens, UniProt P98170); experiment: In vitro interaction assay of GST fusion proteins with 35S-labeled XIAP; assay type: binding; conditions: for interaction with full length XIAP: C-terminal GST fusion proteins immobilized onto glutathione-affinity resin
# T6 construct: full length XIAP or the isolated BIR3 domain of XIAP; made in house; host or cells: in vitro translation (cell-free)
# Source text: (§1) The C-terminal GST fusion proteins were expressed in bacteria and then immobilized onto glutathione-affinity resin. […] The caspase-9 deletion mutants used in these studies are represented by bar diagrams above the panel in FIG. 10.
# [8] = target: T7, isolated BIR3 domain of XIAP (Homo sapiens, UniProt P98170); experiment: In vitro interaction assay of GST fusion proteins with 35S-labeled BIR3; assay type: binding; conditions: for interaction with isolated BIR3 domain of XIAP: C-terminal GST fusion proteins immobilized onto glutathione-affinity resin
# T7 construct: full length XIAP or the isolated BIR3 domain of XIAP; made in house; host or cells: in vitro translation (cell-free)
# Source text: as §1
# [9] = target: T8, E314S mutant BIR3 domain of XIAP (Homo sapiens, UniProt P98170, E314S); experiment: Interaction of GST fusion proteins with 35S-labeled E314S mutant BIR3; assay type: binding; conditions: compared with WT BIR3
# T8 construct: made in house
# Source text: as §1
# [10] = less than p12 and linker peptide
molecule,measurement,setting,value
ATPFQ (listed as Homo sapiens) [p12-N5],promoting caspase-3 activation in XIAP containing extracts,XIAP [1],as effective in promoting caspase-3 activation as the Smac-N5 or N7 peptides
caspase-9 linker deletion mutant (residues 316 to 330 of SEQ ID NO:1 deleted) (protein) chain 1: MDEADRRLLRRCRLRLVEELQVDQLWDALLSRELFRPHMIEDIQRAGSGSRRDQARQLIIDLETRGSQALPLFISCLEDTGQDMLASFLRTNRQAAKLSKPTLENLTPVVLRPEIRKPEVLRPETPRPVDIGSGGFGDVGALESLRGNADLAYILSMEPCGHCLIINNVNFCRESGLRTRTGSNIDCEKLRRRFSSLHFMVEVKGDLTAKKMVLALLELAQQDHGALDCCVVVILSHGCQASHLQFPGAVYGTDGCPVSVEKIVNIFNGTSCPSLGGKPKLFFIQACGGEQKDHGFEVASTSPEDESPGSNPEPD chain 2: AISSLPTPSDIFVSYSTFPGFVSWRDPKSGSWYVETLDDIFEQWAHSEDLQSLLLRVANAVSVKGIYKQMPGCFNFLRKKLFFKTS,DEVD-AMC cleaving activity in S100 extracts with or without XIAP-BIR3 (20 nM),[2],"the deletion of the linker region did not inhibit enzymatic activity, even in the presence of XIAP-BIR3"
"Caspase-9-p12 C-terminal GST fusion protein (residues 316-416 of SEQ ID NO:1) (other, not shown: a dimerising Fc or GST, also called p12-GST; GST-p12) ATPFQEGLRTFDQLDAISSLPTPSDIFVSYSTFPGFVSWRDPKSGSWYVETLDDIFEQWAHSEDLQSLLLRVANAVSVKGIYKQMPGCFNFLRKKLFFKTS",binding result,[3],binds
same,binding result,[4],no binding
ATPFQEGLRTFDQLD [chemically synthesized caspase-9 linker peptide (ATPFQEGLRTFDQLD)],Kd,[5],550 nM
AVPIAQK [Smac-N7 peptide (AVPIAQK)],Kd,[5],~810 nM
"fully processed wild-type (WT) caspase-9 (enzyme, Procaspase-9 overexpressed in E. coli, completely processed into p35 and p12 (greater than 90% at Asp315, about 10% at Asp330 giving p10, minor at Glu306); also called wild type caspase-9; processed caspase-9; not shown: C-terminal 6-Histidine tag from pET-21c or pET-28a) chain 1: MDEADRRLLRRCRLRLVEELQVDQLWDALLSRELFRPHMIEDIQRAGSGSRRDQARQLIIDLETRGSQALPLFISCLEDTGQDMLASFLRTNRQAAKLSKPTLENLTPVVLRPEIRKPEVLRPETPRPVDIGSGGFGDVGALESLRGNADLAYILSMEPCGHCLIINNVNFCRESGLRTRTGSNIDCEKLRRRFSSLHFMVEVKGDLTAKKMVLALLELAQQDHGALDCCVVVILSHGCQASHLQFPGAVYGTDGCPVSVEKIVNIFNGTSCPSLGGKPKLFFIQACGGEQKDHGFEVASTSPEDESPGSNPEPD chain 2: ATPFQEGLRTFDQLDAISSLPTPSDIFVSYSTFPGFVSWRDPKSGSWYVETLDDIFEQWAHSEDLQSLLLRVANAVSVKGIYKQMPGCFNFLRKKLFFKTS",binding result,[6],binds
"single mutant (D315A) caspase-9 (enzyme, also called caspase-9 D315A) MDEADRRLLRRCRLRLVEELQVDQLWDALLSRELFRPHMIEDIQRAGSGSRRDQARQLIIDLETRGSQALPLFISCLEDTGQDMLASFLRTNRQAAKLSKPTLENLTPVVLRPEIRKPEVLRPETPRPVDIGSGGFGDVGALESLRGNADLAYILSMEPCGHCLIINNVNFCRESGLRTRTGSNIDCEKLRRRFSSLHFMVEVKGDLTAKKMVLALLELAQQDHGALDCCVVVILSHGCQASHLQFPGAVYGTDGCPVSVEKIVNIFNGTSCPSLGGKPKLFFIQACGGEQKDHGFEVASTSPEDESPGSNPEPAATPFQEGLRTFDQLDAISSLPTPSDIFVSYSTFPGFVSWRDPKSGSWYVETLDDIFEQWAHSEDLQSLLLRVANAVSVKGIYKQMPGCFNFLRKKLFFKTS",binding of XIAP by Far Western,XIAP [7],not able to bind
same,binding result,[3],no binding
"double mutant (D315/D330A) caspase-9 (enzyme, also called caspase-9 D315/330A) MDEADRRLLRRCRLRLVEELQVDQLWDALLSRELFRPHMIEDIQRAGSGSRRDQARQLIIDLETRGSQALPLFISCLEDTGQDMLASFLRTNRQAAKLSKPTLENLTPVVLRPEIRKPEVLRPETPRPVDIGSGGFGDVGALESLRGNADLAYILSMEPCGHCLIINNVNFCRESGLRTRTGSNIDCEKLRRRFSSLHFMVEVKGDLTAKKMVLALLELAQQDHGALDCCVVVILSHGCQASHLQFPGAVYGTDGCPVSVEKIVNIFNGTSCPSLGGKPKLFFIQACGGEQKDHGFEVASTSPEDESPGSNPEPAATPFQEGLRTFDQLAAISSLPTPSDIFVSYSTFPGFVSWRDPKSGSWYVETLDDIFEQWAHSEDLQSLLLRVANAVSVKGIYKQMPGCFNFLRKKLFFKTS",binding of XIAP by Far Western,XIAP [7],not able to bind
same,binding result,[3],no binding
"p12: C-terminal GST fusion protein of Caspase-9-p12 (residues 316-416 of SEQ ID NO:1) (protein, left off: a dimerising Fc or GST) ATPFQEGLRTFDQLDAISSLPTPSDIFVSYSTFPGFVSWRDPKSGSWYVETLDDIFEQWAHSEDLQSLLLRVANAVSVKGIYKQMPGCFNFLRKKLFFKTS",interaction with full length XIAP,full length XIAP,able to interact
same,interaction with isolated BIR3 domain of XIAP,[8],able to interact
same,binding of XIAP by Far Western,XIAP [7],able to bind
same,binding to E314S mutant BIR3,[9],abrogated binding
"p10-GST: C-terminal GST fusion protein of caspase-9 p10 (residues 331-416 of SEQ ID NO:1) (protein, left off: a dimerising Fc or GST) AISSLPTPSDIFVSYSTFPGFVSWRDPKSGSWYVETLDDIFEQWAHSEDLQSLLLRVANAVSVKGIYKQMPGCFNFLRKKLFFKTS",interaction with full length XIAP,full length XIAP,only weakly
same,"interaction with full length XIAP, fold less",full length XIAP; [10],50 to 100 fold
same,interaction with isolated BIR3 domain of XIAP,[8],only weakly
same,"interaction with BIR3 domain, fold less",[8]; [10],50 to 100 fold
same,binding of XIAP by Far Western,XIAP [7],not able to bind
"Smac-GST: mature Smac/DIABLO GST-fusion protein (protein, left off: a dimerising Fc or GST, mature Smac/DIABLO GST-fusion protein) AVPIAQKSEPHSLSSEALMRRAVSLVTDSTSTFLSQTTYALIEAITEYTKAVYTLTSLYRQYTSLLGKMNSEEEDEVWQVIIGARAEMTSKHQEYLKLETTWMTAVGLSEMAAEAAYQTGADQASITARNHIQLVKLQVEEVHQLSRKAETKLAEAQIEELRQKTQEEGEERAESEQEAYLRED",binding of XIAP by Far Western,XIAP [7],able to bind
same,binding to E314S mutant BIR3,[9],abrogated binding
"SG: caspase-9 with first two p12 residues Ala-Thr mutated to Ser-Gly (protein, UniProt P55211 1-416, looked up, variant A316S T317G) MDEADRRLLRRCRLRLVEELQVDQLWDALLSRELFRPHMIEDIQRAGSGSRRDQARQLIIDLETRGSQALPLFISCLEDTGQDMLASFLRTNRQAAKLSKPTLENLTPVVLRPEIRKPEVLRPETPRPVDIGSGGFGDVGALESLRGNADLAYILSMEPCGHCLIINNVNFCRESGLRTRTGSNIDCEKLRRRFSSLHFMVEVKGDLTAKKMVLALLELAQQDHGALDCCVVVILSHGCQASHLQFPGAVYGTDGCPVSVEKIVNIFNGTSCPSLGGKPKLFFIQACGGEQKDHGFEVASTSPEDESPGSNPEPDSGPFQEGLRTFDQLDAISSLPTPSDIFVSYSTFPGFVSWRDPKSGSWYVETLDDIFEQWAHSEDLQSLLLRVANAVSVKGIYKQMPGCFNFLRKKLFFKTS","ability to interact with BIR3 (Far western, FIG. 12B)",XIAP [7],lost significantly the ability to interact
"GG: caspase-9 with first two p12 residues Ala-Thr mutated to Gly-Gly (protein, UniProt P55211 1-416, looked up, variant A316G T317G) MDEADRRLLRRCRLRLVEELQVDQLWDALLSRELFRPHMIEDIQRAGSGSRRDQARQLIIDLETRGSQALPLFISCLEDTGQDMLASFLRTNRQAAKLSKPTLENLTPVVLRPEIRKPEVLRPETPRPVDIGSGGFGDVGALESLRGNADLAYILSMEPCGHCLIINNVNFCRESGLRTRTGSNIDCEKLRRRFSSLHFMVEVKGDLTAKKMVLALLELAQQDHGALDCCVVVILSHGCQASHLQFPGAVYGTDGCPVSVEKIVNIFNGTSCPSLGGKPKLFFIQACGGEQKDHGFEVASTSPEDESPGSNPEPDGGPFQEGLRTFDQLDAISSLPTPSDIFVSYSTFPGFVSWRDPKSGSWYVETLDDIFEQWAHSEDLQSLLLRVANAVSVKGIYKQMPGCFNFLRKKLFFKTS","ability to interact with BIR3 (Far western, FIG. 12B)",XIAP [7],lost significantly the ability to interact
SGVD176-179AVPF: caspase-3 with first four residues of p12 substituted with AVPF (protein) chain 1: SGISLDNSYKMDYPEMGLCIIINNKNFHKSTGMTSRSGTDVDAANLRETFRNLKYEVRNKNDLTREEIVELMRDVSKEDHSKRSSFVCVLLSHGEEGIIFGTNGPVDLKKITNFFRGDRCRSLTGKPKLFIIQACRGTELDCGIETD chain 2: AVPFDDMACHKIPVEADFLYAYSTAPGYYSWRNSKDGSWFIQSLCAMLKQYADKLEFMHILTRVNRKVATEFESFSFDATFHAKKQIPCIVSMLTKELYFYH,binding of XIAP by Far Western,XIAP [7],enhanced binding
